Test results: publication PMC6656783, “ABCE1 Controls Ribosome Recycling by an Asymmetric Dynamic Conformational Equilibrium” (Cell Reports, 2019)

Assays:
ABCE1 = molecular target: T1, ABCE1 (Saccharolobus solfataricus, UniProt Q980K5, K177C/T393C); assay: malachite green ATPase assay; format: biochemical; details: site II variant, before and after Cy3B/Atto647N labelling of the protein; 5 mM ATP, 10 mM MgCl2, pH 7.5, 80 °C
T1 construct: gene SSO0287; full length with N-terminal FeS cluster domain, C-terminal His6 tag, pSA4 vector, expressed in E. coli BL21(DE3) pRARE; about 70 kDa

[1] = molecular target: 30S ribosomal subunit from Sulfolobus solfataricus (Sulfolobus solfataricus); assay: dissociation time course by burst-length analysis in single-molecule ALEX/smFRET; 30 nM labelled ABCE1 with 25 μM AMP-PNP and 12.5 μM 30S, 73°C 10 min; then 630-fold dilution with 2 μM unlabelled ABCE1, dissociation followed at 73°C for 0-10 min; the association rate is estimated from this rate and the KD
[2] = molecular target: 30S ribosomal subunit from Sulfolobus solfataricus (Sulfolobus solfataricus); assay: burst-length (diffusion) analysis in single-molecule ALEX/smFRET; titration of 30S; percentage of 30S-bound ABCE1 at each concentration; 2 mM AMP-PNP, 73°C, 10 min

## Nc1ncnc2c1ncn2[C@@H]1O[C@H](COP(=O)(O)OP(=O)(O)OP(=O)(O)O)[C@@H](O)[C@H]1O [ATP]
ABCE1
  malachite green ATPase assay: verified by determining the basal ATP hydrolysis, which was similar to the wild type

## ABCE1^K177C/T393C (site II variant), labelled with Cy3B and Atto647N (enzyme)
[1]
  koff: 0.00833 s⁻¹
  kon: 400000 M⁻¹ s⁻¹
[2]
  Kd: 20 nM
